Assay results from patent US20220003777.

Legend:
[1] = biological target: T1, C1 esterase inhibitor, human plasma-derived, P05155
T1 chain: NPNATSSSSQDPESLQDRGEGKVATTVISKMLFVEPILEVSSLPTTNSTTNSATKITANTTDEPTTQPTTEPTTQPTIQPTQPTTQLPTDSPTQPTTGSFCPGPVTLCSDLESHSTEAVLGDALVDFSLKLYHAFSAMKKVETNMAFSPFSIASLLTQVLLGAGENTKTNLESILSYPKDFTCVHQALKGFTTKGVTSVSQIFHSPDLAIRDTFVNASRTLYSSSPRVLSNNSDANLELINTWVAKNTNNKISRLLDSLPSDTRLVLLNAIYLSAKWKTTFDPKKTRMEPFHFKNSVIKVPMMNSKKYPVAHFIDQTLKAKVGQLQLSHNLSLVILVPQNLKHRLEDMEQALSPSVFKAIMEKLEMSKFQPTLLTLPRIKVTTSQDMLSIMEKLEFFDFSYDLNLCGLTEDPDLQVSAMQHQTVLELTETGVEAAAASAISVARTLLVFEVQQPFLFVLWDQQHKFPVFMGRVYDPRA

[2] = biological target: T2, CD43, recombinant, P16150
T2 chain: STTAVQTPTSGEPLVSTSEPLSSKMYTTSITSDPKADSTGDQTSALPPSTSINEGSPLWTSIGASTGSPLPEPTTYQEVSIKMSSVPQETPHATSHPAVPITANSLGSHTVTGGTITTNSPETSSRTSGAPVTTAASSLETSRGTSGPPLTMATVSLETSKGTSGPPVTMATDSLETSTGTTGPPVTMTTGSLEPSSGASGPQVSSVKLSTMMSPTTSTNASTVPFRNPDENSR

[3] = biological target: T3, CD45, recombinant, P08575
T3 chain: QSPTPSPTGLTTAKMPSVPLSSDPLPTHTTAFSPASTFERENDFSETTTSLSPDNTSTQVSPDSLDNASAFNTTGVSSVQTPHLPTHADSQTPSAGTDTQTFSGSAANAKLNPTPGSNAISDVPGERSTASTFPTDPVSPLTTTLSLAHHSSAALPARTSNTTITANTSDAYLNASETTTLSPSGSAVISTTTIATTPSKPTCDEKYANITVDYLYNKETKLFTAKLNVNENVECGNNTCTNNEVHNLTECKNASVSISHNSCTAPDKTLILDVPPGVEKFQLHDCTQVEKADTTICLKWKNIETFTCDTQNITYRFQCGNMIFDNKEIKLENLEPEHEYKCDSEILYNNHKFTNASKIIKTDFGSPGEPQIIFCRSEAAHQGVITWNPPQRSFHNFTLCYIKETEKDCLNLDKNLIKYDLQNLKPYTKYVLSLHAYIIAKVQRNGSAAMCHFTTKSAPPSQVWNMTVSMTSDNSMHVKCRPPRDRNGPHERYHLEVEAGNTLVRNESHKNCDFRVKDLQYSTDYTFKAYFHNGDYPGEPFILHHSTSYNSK

[4] = biological target: MUC16, native human (cell lines, cell lysates and supernatants, cancer patient ascites), Q8WXI7
[5] = biological target: T4, PSGL-1, recombinant, Q14242
T4 chain: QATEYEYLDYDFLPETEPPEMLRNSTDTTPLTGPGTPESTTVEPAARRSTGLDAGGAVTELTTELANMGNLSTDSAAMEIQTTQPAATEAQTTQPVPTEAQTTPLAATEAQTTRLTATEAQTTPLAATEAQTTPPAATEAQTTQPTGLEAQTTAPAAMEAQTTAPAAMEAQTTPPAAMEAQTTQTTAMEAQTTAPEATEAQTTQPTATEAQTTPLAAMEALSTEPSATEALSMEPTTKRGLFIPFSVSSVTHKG

[6] = biological target: T5, Syncam-1, recombinant, Q9BY67
T5 chain: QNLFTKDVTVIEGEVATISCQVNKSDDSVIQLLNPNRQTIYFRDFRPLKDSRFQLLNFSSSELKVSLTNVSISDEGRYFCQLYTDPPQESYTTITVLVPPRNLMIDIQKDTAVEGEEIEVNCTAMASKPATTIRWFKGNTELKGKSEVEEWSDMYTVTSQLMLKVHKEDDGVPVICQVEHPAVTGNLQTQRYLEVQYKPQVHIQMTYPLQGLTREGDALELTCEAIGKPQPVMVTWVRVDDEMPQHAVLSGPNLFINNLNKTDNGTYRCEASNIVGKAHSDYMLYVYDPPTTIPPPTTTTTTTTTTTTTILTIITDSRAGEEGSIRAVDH

[7] = biological target: bovine serum albumin, P02769
fetuin, P12763 = biological target: T6, fetuin, P12763
T6 chain: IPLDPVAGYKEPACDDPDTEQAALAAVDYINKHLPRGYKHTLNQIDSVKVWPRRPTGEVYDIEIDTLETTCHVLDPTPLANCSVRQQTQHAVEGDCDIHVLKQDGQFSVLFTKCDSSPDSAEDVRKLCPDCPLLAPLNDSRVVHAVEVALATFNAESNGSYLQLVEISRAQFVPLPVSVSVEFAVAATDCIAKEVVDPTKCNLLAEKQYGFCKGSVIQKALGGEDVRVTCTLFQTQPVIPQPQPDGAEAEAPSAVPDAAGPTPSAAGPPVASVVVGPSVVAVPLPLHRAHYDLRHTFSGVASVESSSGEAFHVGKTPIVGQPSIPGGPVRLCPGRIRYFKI

[8] = biological target: T7, podocalyxin, recombinant, O00592
T7 chain: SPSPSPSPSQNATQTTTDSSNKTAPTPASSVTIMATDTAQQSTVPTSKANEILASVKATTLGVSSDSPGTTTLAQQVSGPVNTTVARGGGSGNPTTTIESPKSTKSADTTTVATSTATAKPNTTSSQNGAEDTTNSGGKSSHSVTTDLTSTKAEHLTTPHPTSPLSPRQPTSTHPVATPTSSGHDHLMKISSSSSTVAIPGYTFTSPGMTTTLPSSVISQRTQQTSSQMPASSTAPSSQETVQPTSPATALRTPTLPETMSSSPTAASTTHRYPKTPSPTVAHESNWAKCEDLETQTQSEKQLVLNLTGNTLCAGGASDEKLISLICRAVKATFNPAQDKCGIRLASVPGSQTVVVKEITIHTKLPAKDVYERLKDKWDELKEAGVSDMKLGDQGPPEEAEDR

[9] = biological target: T8, recombinant human MUC16, Q8WXI7
T8 chain: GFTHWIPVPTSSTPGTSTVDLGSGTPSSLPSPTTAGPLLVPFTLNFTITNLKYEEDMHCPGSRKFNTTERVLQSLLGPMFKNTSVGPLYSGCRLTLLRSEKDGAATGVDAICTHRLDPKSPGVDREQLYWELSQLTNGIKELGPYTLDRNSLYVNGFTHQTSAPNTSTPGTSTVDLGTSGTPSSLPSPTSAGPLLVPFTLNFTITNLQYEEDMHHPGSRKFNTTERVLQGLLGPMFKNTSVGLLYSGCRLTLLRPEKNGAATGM

[10] = biological target: T9, synthetic glycopeptide RPPIT*QSSL
T9 chain: RPPITQSSL

Chain of bovine serum albumin, P02769 (P02769 25-607): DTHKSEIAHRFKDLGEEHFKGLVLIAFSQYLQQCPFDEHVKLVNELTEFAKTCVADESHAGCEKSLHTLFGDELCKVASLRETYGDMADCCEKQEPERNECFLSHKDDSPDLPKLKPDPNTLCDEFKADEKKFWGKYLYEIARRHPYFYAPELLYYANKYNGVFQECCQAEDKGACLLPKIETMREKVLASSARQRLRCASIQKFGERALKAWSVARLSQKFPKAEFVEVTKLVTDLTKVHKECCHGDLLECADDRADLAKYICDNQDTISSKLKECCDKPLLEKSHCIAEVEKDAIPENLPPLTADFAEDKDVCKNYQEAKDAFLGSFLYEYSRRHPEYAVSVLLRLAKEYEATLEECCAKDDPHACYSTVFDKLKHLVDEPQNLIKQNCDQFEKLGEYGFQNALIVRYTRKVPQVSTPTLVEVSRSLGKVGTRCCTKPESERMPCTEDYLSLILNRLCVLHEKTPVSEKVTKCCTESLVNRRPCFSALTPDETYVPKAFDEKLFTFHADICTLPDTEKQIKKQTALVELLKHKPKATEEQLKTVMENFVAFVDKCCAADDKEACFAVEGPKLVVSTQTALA

B1: Secreted Protease of C1 Esterase Inhibitor (StcE), recombinant N-terminal His-tagged (protein)
chain: ADNNSAIYFNTSQPINDLQGSLAAEVKFAQSQILPAHPKEGDSQPHLTSLRKSLLLVRPVKADDKTPVQVEARDDNNKILGTLTLYPPSSLPDTIYHLDGVPEGGIDFTPHNGTKKIINTVAEVNKLSDASGSSIHSHLTNNALVEIHTANGRWVRDIYLPQGPDLEGKMVRFVSSAGYSSTVFYGDRKVTLSVGNTLLFKYVNGQWFRSGELENNRITYAQHIWSAELPAHWIVPGLNLVIKQGNLSGRLNDIKIGAPGELLLHTIDIGMLTTPRDRFDFAKDKEAHREYFQTIPVSRMIVNNYAPLHLKEVMLPTGELLTDMDPGNGGWHSGTMRQRIGKELVSHGIDNANYGLNSTAGLGENSHPYVVAQLAAHNSRGNYANGIQVHGGSGGGGIVTLDSTLGNEFSHEVGHNYGLGHYVDGFKGSVHRSAENNNSTWGWDGDKKRFIPNFYPSQTNEKSCLNNQCQEPFDGHKFGFDAMAGGSPFSAANRFTMYTPNSSAIIQRFFENKAVFDSRSSTGFSKWNADTQEMEPYEHTIDRAEQITASVNELSESKMAELMAEYAVVKVHMWNGNWTRNIYIPTASADNRGSILTINHEAGYNSYLFINGDEKVVSQGYKKSFVSDGQFWKERDVVDTREARKPEQFGVPVTTLVGYYDPEGTLSSYIYPAMYGAYGFTYSDDSQNLSDNDCQLQVDTKEGQLRFRLANHRANNTVMNKFHINVPTESQPTQATLVCNNKILDTKSLTPAPEGLTYTVNGQALPAKENEGCIVSVNSGKRYCLPVGQRSGYSLPDWIVGQEVYVDSGAKAKVLLSDWDNLSYNRIGEFVGNVNPADMKKVKAWNGQYLDFSKPRSMRVVYK
[1]
  cleavage of substrate (SDS-PAGE, glycoprotein stain): active against C11NH
[2]
  cleavage of substrate (gel shift): cleaved all tested mucin-like glycoproteins
[3]
  cleavage of substrate (gel shift): cleaved all tested mucin-like glycoproteins
[4]
  cleavage in ascites fluid (anti-MUC16 Western blot): dose-dependent decrease in apparent molecular weight
[5]
  cleavage of substrate (gel shift): cleaved all tested mucin-like glycoproteins
[6]
  cleavage of substrate (gel shift): cleaved all tested mucin-like glycoproteins
[7]
  cleavage of substrate (gel shift): did not cleave
fetuin, P12763
  cleavage of substrate (gel shift): did not cleave
[8]
  cleavage of substrate (gel shift): cleaved all tested mucin-like glycoproteins
[9]
  cleavage of substrate (gel shift): cleaved all tested mucin-like glycoproteins
[10]
  cleavage of synthetic glycopeptide (MS): StcE cleaved a synthetic peptide containing a single GalNAc
